# Test results from patent US20020185139A1, “Methods for reducing postoperative intraocular pressure” (priority 2001, published 2002).
# Test system: corneal endothelium
# Design: species or system rabbits
# Conditions: rabbit, in vivo
# Source text: In order to investigate the effect of hyaluronidase on the postoperative endothelium, the eyes of the rabbits from Experiment 1 were studied by performing vital staining of the corneal endothelium of the rabbits.
substance,measurement,value
hyaluronidase,endothelial damage (vital staining of corneal endothelium),no endothelial damage
